# Test results reported in the supplement of paper PMC10567573.
# B1: TOR1AIP2 (parent)
# chain: HHVADAYTSSQKVSPIQIDGAGRT
# Variants of: B1
# Experiment: protein stability index of a GFP-peptide fusion (GPS, HEK-293T) (PSI 1-6); higher = more stable
# Conditions: c terminus: a fixed tail appended
# 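Further: lentivirally expressed fusions sorted by FACS into six bins by GFP to DsRed ratio, PSI derived from sequencing read proportions per bin multiplied by bin number.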
row,Variant,protein stability index
1,HHVADAYTSSQKVSPFQIDGAGRT [I16F],3.49
2,HHVADAYTSSQKVSPSQIDGAGRT [I16S],3.78
3,HHVADAYTSSQKVSPCQIDGAGRT [I16C],3.31
4,HHVADAYTSSQKVSPNQIDGAGRT [I16N],3.88
5,HHVADAYTSSQKVSPQQIDGAGRT [I16Q],3.69
6,HHVADAYTSSQKVSPAQIDGAGRT [I16A],3.72
7,HHVADAYTSSQKVSPLQIDGAGRT [I16L],3.6
8,HHVADAYTSSQKVSPTQIDGAGRT [I16T],4.13
9,HHVADAYTSSQKVSPDQIDGAGRT [I16D],4.46
10,HHVADAYTSSQKVSPPQIDGAGRT [I16P],4.09
11,HHVADAYTSSQKVSPGQIDGAGRT [I16G],3.78
12,HHVADAYTSSQKVSPMQIDGAGRT [I16M],3.38
13,HHVADAYTSSQKVSPVQIDGAGRT [I16V],4.05
14,HHVADAYTSSQKVSPYQIDGAGRT [I16Y],3.69
15,HHVADAYTSSQKVSPKQIDGAGRT [I16K],4.04
16,HHVADAYTSSQKVSPWQIDGAGRT [I16W],2.59
17,HHVADAYTSSQKVSPEQIDGAGRT [I16E],4.51
18,HHVADAYTSSQKVSPRQIDGAGRT [I16R],3.94
19,HHVADAYTSSQKVSPHQIDGAGRT [I16H],3.45
20,HHVADAYTSSQKQSPIQIDGAGRT [V13Q],3.85
21,HHVADAYTSSQKSSPIQIDGAGRT [V13S],3.79
22,HHVADAYTSSQKPSPIQIDGAGRT [V13P],3.82
23,HHVADAYTSSQKKSPIQIDGAGRT [V13K],3.66
24,HHVADAYTSSQKISPIQIDGAGRT [V13I],2.83

row,Variant,protein stability index
1,HHVADAYTSSQKGSPIQIDGAGRT [V13G],3.7
2,HHVADAYTSSQKCSPIQIDGAGRT [V13C],2.92
3,HHVADAYTSSQKFSPIQIDGAGRT [V13F],3.21
4,HHVADAYTSSQKASPIQIDGAGRT [V13A],3.27
5,HHVADAYTSSQKTSPIQIDGAGRT [V13T],3.8
6,HHVADAYTSSQKHSPIQIDGAGRT [V13H],3.76
7,HHVADAYTSSQKYSPIQIDGAGRT [V13Y],3.43
8,HHVADAYTSSQKDSPIQIDGAGRT [V13D],4
9,HHVADAYTSSQKRSPIQIDGAGRT [V13R],3.59
10,HHVADAYTSSQKMSPIQIDGAGRT [V13M],3.83
11,HHVADAYTSSQKLSPIQIDGAGRT [V13L],3.56
12,HHVADAYTSSQKWSPIQIDGAGRT [V13W],3.16
13,HHVADAYTSSQKNSPIQIDGAGRT [V13N],4.32
14,HHVADAYTSSQKESPIQIDGAGRT [V13E],3.96
15,HHVADAYTSSQWVSPIQIDGAGRT [K12W],2.72
16,HHVADAYTSSQYVSPIQIDGAGRT [K12Y],3.02
17,HHVADAYTSSQKVSLIQIDGAGRT [P15L],3.45
18,HHVADAYTSSQKVSMIQIDGAGRT [P15M],3.25
19,HHVADAYTSSQKVSDIQIDGAGRT [P15D],3.81
20,HHVADAYTSSQKVSQIQIDGAGRT [P15Q],3.43
21,HHVADAYTSSQKVSRIQIDGAGRT [P15R],3.26
22,HHVADAYTSSQKVSIIQIDGAGRT [P15I],2.77
23,HHVADAYTSSQKVSTIQIDGAGRT [P15T],3.28
24,HHVADAYTSSQKVSHIQIDGAGRT [P15H],3.08

row,Variant,protein stability index
1,HHVADAYTSSQKVSYIQIDGAGRT [P15Y],2.55
2,HHVADAYTSSQKVSAIQIDGAGRT [P15A],3.66
3,HHVADAYTSSQKVSCIQIDGAGRT [P15C],3.66
4,HHVADAYTSSQKVSKIQIDGAGRT [P15K],3.33
5,HHVADAYTSSQKVSSIQIDGAGRT [P15S],3.41
6,HHVADAYTSSQKVSWIQIDGAGRT [P15W],2.63
7,HHVADAYTSSQKVSGIQIDGAGRT [P15G],4.04
8,HHVADAYTSSQKVSVIQIDGAGRT [P15V],3.14
9,HHVADAYTSSQKVSNIQIDGAGRT [P15N],3.47
10,HHVADAYTSSQKVSFIQIDGAGRT [P15F],2.82
11,HHVADAYTSSQKVSEIQIDGAGRT [P15E],3.82
12,HHVADAYTSSQKVYPIQIDGAGRT [S14Y],2.71
13,HHVADAYTSSQKVIPIQIDGAGRT [S14I],2.94
14,HHVADAYTSSQKVTPIQIDGAGRT [S14T],3.22
15,HHVADAYTSSQKVKPIQIDGAGRT [S14K],3.45
16,HHVADAYTSSQKVMPIQIDGAGRT [S14M],3.25
17,HHVADAYTSSQKVWPIQIDGAGRT [S14W],2.77
18,HHVADAYTSSQKVGPIQIDGAGRT [S14G],3.27
19,HHVADAYTSSQKVEPIQIDGAGRT [S14E],4.13
20,HHVADAYTSSQKVHPIQIDGAGRT [S14H],3.44
21,HHVADAYTSSQKVLPIQIDGAGRT [S14L],3.42
22,HHVADAYTSSQKVQPIQIDGAGRT [S14Q],3.35
23,HHVADAYTSSQKVAPIQIDGAGRT [S14A],3.9
24,HHVADAYTSSQKVFPIQIDGAGRT [S14F],3.34

row,Variant,protein stability index
1,HHVADAYTSSQKVDPIQIDGAGRT [S14D],4.07
2,HHVADAYTSSQKVRPIQIDGAGRT [S14R],3.26
3,HHVADAYTSSQKVVPIQIDGAGRT [S14V],3.46
4,HHVADAYTSSQKVPPIQIDGAGRT [S14P],3.25
5,HHVADAYTSSQKVCPIQIDGAGRT [S14C],3.22
6,HHVADAYTSSQKVNPIQIDGAGRT [S14N],4.01
7,HHVADAYTSSQKVSPIFIDGAGRT [Q17F],3.05
8,HHVADAYTSSQKVSPIEIDGAGRT [Q17E],3.65
9,HHVADAYTSSQKVSPIIIDGAGRT [Q17I],3.05
10,HHVADAYTSSQKVSPICIDGAGRT [Q17C],3.26
11,HHVADAYTSSQKVSPIGIDGAGRT [Q17G],3.29
12,HHVADAYTSSQKVSPISIDGAGRT [Q17S],3.69
13,HHVADAYTSSQKVSPINIDGAGRT [Q17N],3.64
14,HHVADAYTSSQKVSPILIDGAGRT [Q17L],3.57
15,HHVADAYTSSQKVSPIHIDGAGRT [Q17H],3.17
16,HHVADAYTSSQKVSPIPIDGAGRT [Q17P],3.93
17,HHVADAYTSSQKVSPIRIDGAGRT [Q17R],3.72
18,HHVADAYTSSQKVSPITIDGAGRT [Q17T],3.41
19,HHVADAYTSSQKVSPIDIDGAGRT [Q17D],3.67
20,HHVADAYTSSQKVSPIMIDGAGRT [Q17M],2.99
21,HHVADAYTSSQKVSPIAIDGAGRT [Q17A],3.55
22,HHVADAYTSSQKVSPIKIDGAGRT [Q17K],3.63
